Consider one molecule from patent JP2011160681A.

Test [1] has as its target InfA peptide (GMVDGWYG) (Influenza A virus). In words: ITC (summary in the description).
Test [2] has the same target. In words: ITC, 25 °C, peptide titrated into antibody. Background: In ITC the heat of successive injections is recorded.

B1: InfA-15 monoclonal antibody (antibody, V domains shown)
VH: QVQLKESGPGLVAPSQSLSITCTVSGFSLTKSGLHWVRQPPGKGLEWLGVIWAGGSTDYNSALTSRLTITKDNSKSQIFFRLNSLQTADTAMYYCVRSTFLYAMDFWGQGTSVTVS
VL: DAVMTQTPLSLPVSLGDQASISCRSSPSLEHSNGNTYLNWYLQKPGQSPQLLIYRVSNRFSGVPDRFSGSGSGTDFTLKISRVEAEDLGVYFCLQVTHVPPTFGGGTKLEIKRA
B1 returned a 結合定数 (order of magnitude, unit M as printed) in test [1] of 1000 nM. This molecule also displayed a Ka in test [2] of 8.6e+06 M⁻¹.
